Source: publication PMC6477699, “Phylogenetic Analyses and GAGA-Motif Binding Studies of BBR/BPC Proteins Lend to Clues in GAGA-Motif Recognition and a Regulatory Role in Brassinosteroid Signaling”
Positions count from the first letter of the chain named.

Legend:
GFP-BPC6 [1] = target: T1, GFP-BPC6 (Arabidopsis thaliana, UniProt Q8L999 1-342); assay: qDPI-ELISA; similar to the other 2x GAGA probes; DPI-ELISA/qDPI-ELISA: 3 ug total E. coli protein extract and 2 pmol biotinylated dsDNA per well in buffered solution; salt, pH and temperature not stated (cited protocols); details: protein: recombinant; tags: GFP fusion; label: biotin on sense strand
T1 sequence: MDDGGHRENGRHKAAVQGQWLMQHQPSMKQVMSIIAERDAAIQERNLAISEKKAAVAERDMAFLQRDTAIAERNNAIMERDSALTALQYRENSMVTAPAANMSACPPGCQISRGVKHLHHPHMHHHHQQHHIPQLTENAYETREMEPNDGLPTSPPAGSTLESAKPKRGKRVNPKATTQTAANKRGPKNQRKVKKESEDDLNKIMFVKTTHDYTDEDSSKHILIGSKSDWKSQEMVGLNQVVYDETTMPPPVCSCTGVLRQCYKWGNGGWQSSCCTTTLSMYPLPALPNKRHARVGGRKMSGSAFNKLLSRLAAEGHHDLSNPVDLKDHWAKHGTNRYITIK

GFP-BPC6 [2] = target: T1, GFP-BPC6; assay: qDPI-ELISA; negative binding probe, used as background; DPI-ELISA/qDPI-ELISA: 3 ug total E. coli protein extract and 2 pmol biotinylated dsDNA per well in buffered solution; salt, pH and temperature not stated (cited protocols); details: protein: recombinant; tags: GFP fusion; label: biotin on sense strand
BPC1 [3] = target: T2, BPC1 (Arabidopsis thaliana, UniProt Q9SKD0 1-283); assay: DPI-ELISA; comparable to K4; DPI-ELISA/qDPI-ELISA: 3 ug total E. coli protein extract and 2 pmol biotinylated dsDNA per well in buffered solution; salt, pH and temperature not stated (cited protocols); details: protein: recombinant; tags: N-terminal 6xHis (pET32b-GW); label: biotin on sense strand
T2 sequence: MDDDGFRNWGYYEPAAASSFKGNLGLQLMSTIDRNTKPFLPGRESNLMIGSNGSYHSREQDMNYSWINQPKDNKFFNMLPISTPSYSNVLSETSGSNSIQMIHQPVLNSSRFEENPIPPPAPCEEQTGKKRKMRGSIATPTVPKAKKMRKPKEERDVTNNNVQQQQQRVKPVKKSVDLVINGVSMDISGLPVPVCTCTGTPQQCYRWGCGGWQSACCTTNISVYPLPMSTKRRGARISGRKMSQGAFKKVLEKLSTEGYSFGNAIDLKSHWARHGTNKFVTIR

GFP-BPC6 [4] = target: T1, GFP-BPC6; assay: qDPI-ELISA; 2.5-times lower than BKn3; DPI-ELISA/qDPI-ELISA: 3 ug total E. coli protein extract and 2 pmol biotinylated dsDNA per well in buffered solution; salt, pH and temperature not stated (cited protocols); details: protein: recombinant; tags: GFP fusion; label: biotin on sense strand
BPC1-WARH = target: T3, BPC1-WARH (Arabidopsis thaliana, UniProt Q9SKD0 1-270); assay: DPI-ELISA; DPI-ELISA/qDPI-ELISA: 3 ug total E. coli protein extract and 2 pmol biotinylated dsDNA per well in buffered solution; salt, pH and temperature not stated (cited protocols); details: protein: recombinant; tags: N-terminal 6xHis (pET32b-GW); label: 5' or 3' biotin not specified, sense strand biotin
T3 sequence: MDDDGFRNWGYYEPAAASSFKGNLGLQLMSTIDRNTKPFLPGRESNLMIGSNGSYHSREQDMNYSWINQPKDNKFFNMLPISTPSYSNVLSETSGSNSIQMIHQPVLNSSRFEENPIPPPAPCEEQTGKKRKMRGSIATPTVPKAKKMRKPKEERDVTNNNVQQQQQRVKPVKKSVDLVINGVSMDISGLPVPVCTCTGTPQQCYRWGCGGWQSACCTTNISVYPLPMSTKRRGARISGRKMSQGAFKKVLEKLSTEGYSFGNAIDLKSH

BPC1-TIR = target: T4, BPC1-TIR (Arabidopsis thaliana, UniProt Q9SKD0 1-280); assay: DPI-ELISA; about 30% less than wild type; DPI-ELISA/qDPI-ELISA: 3 ug total E. coli protein extract and 2 pmol biotinylated dsDNA per well in buffered solution; salt, pH and temperature not stated (cited protocols); details: protein: recombinant; tags: N-terminal 6xHis (pET32b-GW); label: 5' or 3' biotin not specified, sense strand biotin
T4 sequence: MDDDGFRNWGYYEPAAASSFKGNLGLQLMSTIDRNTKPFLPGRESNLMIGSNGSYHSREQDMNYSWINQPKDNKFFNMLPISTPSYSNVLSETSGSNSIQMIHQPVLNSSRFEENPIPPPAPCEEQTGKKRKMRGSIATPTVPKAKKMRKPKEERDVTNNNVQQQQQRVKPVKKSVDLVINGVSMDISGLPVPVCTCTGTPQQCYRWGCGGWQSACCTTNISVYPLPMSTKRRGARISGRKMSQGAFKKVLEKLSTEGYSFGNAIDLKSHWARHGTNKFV

BPC1 [5] = target: T2, BPC1; assay: DPI-ELISA; DPI-ELISA/qDPI-ELISA: 3 ug total E. coli protein extract and 2 pmol biotinylated dsDNA per well in buffered solution; salt, pH and temperature not stated (cited protocols); details: protein: recombinant; tags: N-terminal 6xHis (pET32b-GW); label: biotin on sense strand
GFP-BPC6 [6] = target: T1, GFP-BPC6; assay: qDPI-ELISA; DPI-ELISA/qDPI-ELISA: 3 ug total E. coli protein extract and 2 pmol biotinylated dsDNA per well in buffered solution; salt, pH and temperature not stated (cited protocols); details: protein: recombinant; tags: GFP fusion; label: biotin on sense strand

B1: K12 (dsDNA)
DNA 1: AATTGGAAATATGGAGAGAGAAAACAAATC
DNA 2: GATTTGTTTTCTCTCTCCATATTTCCAATT
**Q.** Does B1 bind (GFP-BPC6 [1])?
**A.** binds

B2: GAGA2 (dsDNA)
DNA 1: GGAGCAAGTAAGAGATGAAACGAGAGTTTC
DNA 2: GAAACTCTCGTTTCATCTCTTACTTGCTCC
**Q.** Does B2 bind (GFP-BPC6 [1])?
**A.** binds

B3: Kneg (dsDNA)
DNA 1: TAATGCAGCAAGTAAGACTACGACTGTTTC
DNA 2: GAAACAGTCGTAGTCTTACTTGCTGCATTA
**Q.** Does B3 bind (GFP-BPC6 [2])?
**A.** no binding

B4: KNAT1/BP (dsDNA)
DNA 1: ATGAGGGCAAAGAGAGATGAGAGAAAATTTATACGTAC
DNA 2: GTACGTATAAATTTTCTCTCATCTCTCTTTGCCCTCAT
**Q.** Does B4 bind (BPC1 [3])?
**A.** binds

**Q.** Does B4 bind (GFP-BPC6 [4])?
**A.** binds

B5: K4 (dsDNA)
DNA 1: TAAAGGAGAAAGAAAGAGAAAGAGAGTTTC
DNA 2: GAAACTCTCTTTCTCTTTCTTTCTCCTTTA
**Q.** Does B5 bind (BPC1-WARH)?
**A.** no binding

**Q.** And the binding signal (BPC1-TIR)?
**A.** ~70 % of wild-type BPC1 signal

B6: BKn3 (dsDNA)
DNA 1: CCGCCATTAATTCATGAGAGAGAGAGAGAGACCAGAGATAA
DNA 2: TTATCTCTGGTCTCTCTCTCTCTCTCATGAATTAATGGCGG
**Q.** With B6 as the binder, how does the binding signal (BPC1 [5]) read?
**A.** ~2 fold of K4 signal

**Q.** And the binding signal (GFP-BPC6 [6])?
**A.** ~2.5 fold of KNAT1/BP fluorescence

B7: K4mut7mut5 (dsDNA)
DNA 1: B5 DNA 1 with A9C, A13T, A21C
DNA 2: B5 DNA 2 with T10G, T18A, T22G
**Q.** Does B7 bind (GFP-BPC6 [1])?
**A.** binds
